The text below walks through data of patent publication US20260098102A1 (NATIONAL UNIVERSITY CORPORATION KOBE UNIVERSITY, published 2026).

The labels stand for the following.
B1: humanized anti-SIRPA antibody hD13_H1L3 (antibody, human IgG4 S228P, kappa, F234A L235A, V domains shown)
VH: QVQLVESGGGVVQPGRSLRLSCAASGFTFSDYGMIWVRQAPGKGLEWVASISSSSSYIYYADSVKGRFTISRDNSKNRLYLQMNSLRAEDTAVYYCARRYYGFNYPFDYWGQGTMVTVSS
VL: DTQLTQSPSSLSASVGQRVTITCGASKSVRTYMHWYQQKPGKQPKLLIYSASNLEAGVPSRFSGSGSGTDFTLTISSLQPEDFATYYCQQSNEPPYTFGQGTKLEIKR
notes: hH1 heavy chain (IgG4proFALA) and hL3 kappa light chain; also called hD13_HIL3; HIL3 antibody
B2: humanized anti-SIRPA antibody hD13_H1L4 (antibody, human IgG4 S228P, kappa, F234A L235A, V domains shown)
VH: B1 VH
VL: DTVLTQSPDSLAVSLGQRATINCGASKSVRTYMHWYQQKPGQQPKLLIYSASNLEAGVPSRFSGSGSGTDFTLTISSLQAEDVAVYYCQQSNEPPYTFGQGTKVEIKR
notes: hH1 heavy chain (IgG4proFALA) and hL4 kappa light chain; also called hD13_HIL4; hD13_HIL4h
B3: humanized anti-SIRPA antibody hD13_H2L2 (antibody, human IgG4 S228P, kappa, F234A L235A, V domains shown)
VH: B1 VH with Q1E, R78T
VL: B1 VL with D1A, T2I, Q43A
notes: hH2 heavy chain (IgG4proFALA) and hL2 kappa light chain; also called H2L2 antibody
B4: humanized anti-SIRPA antibody hD13_H2L3 (antibody, human IgG4 S228P, kappa, F234A L235A, V domains shown)
VH: B1 VH with Q1E, R78T
VL: B1 VL
notes: hH2 heavy chain (IgG4proFALA) and hL3 kappa light chain; also called H2L3 antibody
B5: human chimeric anti-SIRPA antibody cD13 (antibody, human IgG4 S228P, kappa, F234A L235A, V domains shown)
VH: EVQLVESGGGLVQPGRSLKLSCLASGFTFSDYGMIWVRQAPGKGLEWVASISSSSSYIYYADTVKGRFTISRENAKNTLFLHMTSLRSEDTALYYCARRYYGFNYPFDYWGQGVMVTVSS
VL: DTVLTQSPALAVSLGQRVTISCGASKSVRTYMHWYQQKSGQQPKLLIYSASNLEAGVPSRFSGSGSGTDFTLTIDPVEADDIANYYCQQSNEPPYTFGAGTKLELKR
notes: Human IgG4proFALA heavy chain, human kappa light chain; also called cD13 (IgG4pf); human chimeric antibody D13

Where a chain is given by its changes, count along the chain named.

For the first test, the target named is T1, cSIRPA_ECD (cynomolgus monkey).
T1 construct: Secreted recombinant protein
T1 chain: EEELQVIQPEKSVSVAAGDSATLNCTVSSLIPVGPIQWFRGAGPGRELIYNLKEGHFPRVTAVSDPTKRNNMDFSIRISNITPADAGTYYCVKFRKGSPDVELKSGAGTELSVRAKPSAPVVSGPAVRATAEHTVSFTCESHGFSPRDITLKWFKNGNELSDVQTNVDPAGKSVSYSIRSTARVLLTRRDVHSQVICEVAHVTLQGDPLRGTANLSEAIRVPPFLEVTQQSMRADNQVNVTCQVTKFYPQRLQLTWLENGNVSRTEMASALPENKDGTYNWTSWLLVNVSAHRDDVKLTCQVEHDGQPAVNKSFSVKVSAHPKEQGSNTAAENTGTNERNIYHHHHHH
Put plainly: SPR Biacore T200, antibody captured on anti-human IgG (Fc), monkey SIRPA_ECD as analyte, 1:1 model. Here is the method: The dissociation constants of hD13_HIL3, hD13_HIL4, hD13_H2L2, and hD13_H2L3 prepared in Example 7 against human SIRPA_V1_IgV and monkey SIRPA_ECD prepared in Example 1 were measured by a capture method of capturing a humanized antibody as a ligand to an Anti-Human IgG (Fc) antibody immobilized using Human Antibody Capture Kit (GE Healthcare Bioscience Corp.) and measuring an antigen as an analyte, using Biacore T200 (GE Healthcare Bioscience Corp.). HBS-EP+ (GE Healthcare Bioscience Corp.) was used as a running buffer, and CM5 (GE Healthcare Bioscience Corp.) was used as a sensor chip. Onto the chip, 1 μg/mL humanized antibody was added at 10 μL/min for 60 seconds, and then a serially diluted solution (0.5 to 8 μg/mL) of human SIRPA protein or a serially diluted solution (1 to 16 μg/mL) of monkey SIRPA protein was added as an antigen at a flow rate of 30 μL/min for 120 seconds, and subsequently the dissociation phase for 600 seconds was monitored. As a regenerant, 3 M magnesium chloride (GE Healthcare Bioscience Corp.) was added at a flow rate of 20 μL/min for 30 seconds. For data analysis, a binding rate constant (ka), a dissociation rate constant (kd), and a dissociation constant (KD; KD=kd/ka) were calculated using a 1:1 binding model.
(In SPR one partner is held on a chip, and binding of the other changes the refractive index at the surface.)
By Kd is commonly meant a measure of binding affinity in units of concentration. For the molecule B1, the affinity, expressed as Kd, was 38.6 nM.
On the same count and under the same terms, for B2 the value was 83.9 nM; for B3, 162 nM.
Same read-out and setting: for B4 the value was 54.2 nM.

For the next test, the target named is T2, mouse SIRPA variant hmSIRPA_Δ1 (mouse (with human residues), UniProt P97797 35-513).
T2 construct: FLAG-tagged (pFLAG V5-DEST), on 293α cells
T2 chain: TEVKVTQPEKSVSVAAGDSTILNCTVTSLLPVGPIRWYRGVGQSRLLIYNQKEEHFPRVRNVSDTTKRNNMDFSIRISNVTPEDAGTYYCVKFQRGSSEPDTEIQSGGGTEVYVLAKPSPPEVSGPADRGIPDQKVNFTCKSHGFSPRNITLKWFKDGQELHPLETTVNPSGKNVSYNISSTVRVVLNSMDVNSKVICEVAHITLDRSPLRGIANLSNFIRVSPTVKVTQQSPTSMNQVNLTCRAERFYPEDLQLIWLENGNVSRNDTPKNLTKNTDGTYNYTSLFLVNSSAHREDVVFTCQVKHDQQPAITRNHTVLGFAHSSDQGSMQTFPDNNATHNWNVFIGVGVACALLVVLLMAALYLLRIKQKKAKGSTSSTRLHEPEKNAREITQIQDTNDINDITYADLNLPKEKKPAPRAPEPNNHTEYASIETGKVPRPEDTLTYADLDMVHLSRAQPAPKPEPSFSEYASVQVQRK
Put plainly: cell-based ELISA on 293α cells expressing FLAG-tagged hmSIRPA_Δ1; Abs 490 normalized to FLAG tag [ii]. On the procedure: After the culture supernatant of 293α cells into which the pFLAG V5-DEST-hmSIRPA_Δ0, Δ1, and Δ2 expression vector prepared in 2)-1-2-2 was introduced and the pFLAG V5-DEST-introduced 293α cells was removed, 50 μL per well of four different D13 humanized anti-human SIRPA antibodies and a chimeric anti-human SIRPA antibody diluted with 5% FBS-containing PBS to a final concentration of 10,000 ng/mL were added to these cells, and the mixture was allowed to stand at 4° C. for one hour. Further, 50 μL per well of an anti-FLAG M2 antibody (SIGMA) diluted with 5% FBS-containing PBS to a final concentration of 10,000 ng/mL was added to a well for detecting expression of each SIRPA construct, and the mixture was allowed to stand at 4° C. for one hour. Thereafter, binding to each construct was evaluated in the same manner as in the evaluation of the binding activity of the human SIRPA. Binding of anti-human SIRPA antibodies to each construct was standardized by expression of the FLAG tag.
(In general: An ELISA detects its analyte on a solid surface through an enzyme-linked reagent.)
Regarding B5, the binding result is listed as “no binding (tested: 10000 ng/mL)”.
Regarding B1, the binding result is “no binding (tested: 10000 ng/mL)”.
The same measure, in the same setting: for B2 the value was “no binding (tested: 10000 ng/mL)”; for B3, “no binding (tested: 10000 ng/mL)”; for B4, “no binding (tested: 10000 ng/mL)”.

Another test addresses T3, mouse SIRPA_C57BL/6 (mouse (C57BL/6), UniProt P97797 32-513).
T3 construct: FLAG-tagged (pFLAG V5-DEST), on 293α cells
T3 sequence: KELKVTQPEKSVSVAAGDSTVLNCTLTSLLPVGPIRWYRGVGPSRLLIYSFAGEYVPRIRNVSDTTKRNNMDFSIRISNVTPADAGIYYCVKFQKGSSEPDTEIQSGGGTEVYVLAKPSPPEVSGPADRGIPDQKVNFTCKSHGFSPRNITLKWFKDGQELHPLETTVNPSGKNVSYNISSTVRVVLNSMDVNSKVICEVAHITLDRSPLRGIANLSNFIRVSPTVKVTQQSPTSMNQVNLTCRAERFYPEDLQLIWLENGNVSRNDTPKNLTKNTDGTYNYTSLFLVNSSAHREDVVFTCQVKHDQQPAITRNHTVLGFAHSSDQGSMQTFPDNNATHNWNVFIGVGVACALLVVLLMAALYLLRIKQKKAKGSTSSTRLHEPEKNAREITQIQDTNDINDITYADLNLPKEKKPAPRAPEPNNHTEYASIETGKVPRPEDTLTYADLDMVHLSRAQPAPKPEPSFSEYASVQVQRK
Briefly: cell-based ELISA on 293α cells expressing FLAG-tagged mouse SIRPA (C57BL/6); Abs 490 normalized to FLAG tag [i]. Here is the method:
The 293a cells, described in Example 1)-6, were prepared at 5× 10⁵ cells/mL in a 10% FBS-containing DMEM medium. pFLAG V5-DEST-SIRPA_V1-V10, pFLAG V5-DEST-monkey SIRPA, pFLAG V5-DEST-mouse SIRPA, or pFLAG V5-DEST was introduced into the cells using Lipofectamine LTX (Invitrogen), and 100 μL each was aliquoted to a 96-well plate (Corning Incorporated) and cultured overnight in a 10% FBS-containing DMEM medium at 37° C. under a 5% CO₂ condition. The obtained introduced cells were used for cell-based ELISA in a state that they adhered. After the culture supernatant was removed, 50 μL per well of hD13_HIL3, hD13_HIL4h, hD13_H2L2, hD13_H2L3, or cD13 prepared in Examples 6 and 7 or a control antibody was added to each of various SIRPA genes-introduced cells at a final concentration of 0 to 10,000 ng/ml, and the mixture was allowed to stand at 4° C. for one hour. Thereafter, binding to human SIRPA was evaluated in the same manner as in Example 5-1.
With B5, the binding result is on record as “no binding (tested: 10000 ng/mL)”.
Turning to B1, the binding result is “no binding (tested: 10000 ng/mL)”.
Same read-out and setting: for B2 the value was “no binding (tested: 10000 ng/mL)”.
Same read-out and setting: then B3, with “no binding (tested: 10000 ng/mL)”; and B4, with “no binding (tested: 10000 ng/mL)”.
